Experimental data reported in article PMC11218540, “Influence of PepF peptidase and sporulation on microcin J25 production in Bacillus subtilis” (Microbiology Spectrum, 2024).
Bridges are numbered along the chain shown (N, C = ends). Where no end group is shown, it is not given here.

Legend:
PepA = PepA (Bacillus subtilis, UniProt O32106); conditions: 8 hours at 37°C, data not shown
Method: (§1) To examine the degradation effect of these three peptidases on the lasso peptide MccJ25, we performed the enzymatic (proteolytic treatment) reaction of MccJ25 with each peptidase enzyme for 8 hours at 37°C and measured the antibacterial activity and concentration of MccJ25 in the incubation products.
(§2) To investigate whether B. subtilis peptidases play an inhibitory role in the maturation of MccJ25, we synthesized a linear peptide chain consisting of 21 amino acid residues for mimicking the MccJ25 precursor peptide. The linear peptide was incubated with PepA, PepF, and PepT, and the effects of degradation of these three peptidases on the MccJ25 precursor peptide were determined.
(§3) The MccJ25 lasso peptide was obtained by a reverse-phase solid-phase extraction method, as described in previous studies ([15]). The MccJ25 lasso peptide was examined by antimicrobial activity analysis and UPLC-QqQ mass spectrometry analysis. The antibacterial activity analysis method and UPLC-QqQ mass spectrometry analysis process for MccJ25 have been described in detail in our previous articles ([21]). […] Quantitative analysis of the MccJ25 linear/lasso peptide was performed by ultra-performance liquid chromatography coupled with triple quadrupole mass spectrometry (UPLC-QqQ, Agilent Co., USA) in the positive ion mode. All original images of SDS-PAGE and spot-on-lawn were cropped and brightness adjusted using Fireworks software (Vesion CS 6, Adobe Systems Incorporated).
(§4) The strains BL21A (BL21-DE3, pET28a-PepA), BL21F (BL21-DE3, pET28a-PepF), and BL21T (BL21-DE3, pET28a-PepT) were used to produce the peptidases PepA, PepF, and PepT, respectively, and BL21O (BL21-DE3, pET28a+) was used as a control strain. […] L-leucine-p-nitroanilide was used as the standard chromogenic substrate for aminopeptidases to identify whether these three peptidases are aminopeptidases in B. subtilis. The mixture of peptidase (10%) and L-leucine-p- nitroanilide (1 mM) was reacted in Tris-HCl buffer solution at pH = 8.5 and 50°C for 10 minutes.

PepF = target: T1, PepF (Bacillus subtilis, UniProt O31605); conditions: mature lasso peptide incubated with purified PepF 8 hours at 37°C, compared with non-peptidase-treated
T1 sequence (O31605 whole entry, looked up): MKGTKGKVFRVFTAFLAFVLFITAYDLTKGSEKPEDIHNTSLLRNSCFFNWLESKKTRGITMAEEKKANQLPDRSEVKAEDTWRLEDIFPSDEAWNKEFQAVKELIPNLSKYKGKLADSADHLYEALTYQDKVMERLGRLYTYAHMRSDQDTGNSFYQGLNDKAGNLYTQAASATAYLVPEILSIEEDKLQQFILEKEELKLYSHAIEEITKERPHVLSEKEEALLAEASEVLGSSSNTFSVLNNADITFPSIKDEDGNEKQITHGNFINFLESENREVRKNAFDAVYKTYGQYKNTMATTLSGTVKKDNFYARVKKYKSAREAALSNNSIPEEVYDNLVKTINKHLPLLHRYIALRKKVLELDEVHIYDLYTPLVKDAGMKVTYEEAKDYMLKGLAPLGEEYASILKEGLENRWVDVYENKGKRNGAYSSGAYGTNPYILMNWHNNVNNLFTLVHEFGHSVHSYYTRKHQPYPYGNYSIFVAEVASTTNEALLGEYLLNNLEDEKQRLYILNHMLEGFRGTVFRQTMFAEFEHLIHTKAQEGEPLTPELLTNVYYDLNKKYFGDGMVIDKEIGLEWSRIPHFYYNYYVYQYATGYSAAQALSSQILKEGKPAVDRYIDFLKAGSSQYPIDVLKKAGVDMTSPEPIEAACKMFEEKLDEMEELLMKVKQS
Method: as §1, §2, §3, §4

PepT = PepT (Bacillus subtilis, UniProt P55179); conditions: 8 hours at 37°C, data not shown
PepT, sequence (P55179 whole entry): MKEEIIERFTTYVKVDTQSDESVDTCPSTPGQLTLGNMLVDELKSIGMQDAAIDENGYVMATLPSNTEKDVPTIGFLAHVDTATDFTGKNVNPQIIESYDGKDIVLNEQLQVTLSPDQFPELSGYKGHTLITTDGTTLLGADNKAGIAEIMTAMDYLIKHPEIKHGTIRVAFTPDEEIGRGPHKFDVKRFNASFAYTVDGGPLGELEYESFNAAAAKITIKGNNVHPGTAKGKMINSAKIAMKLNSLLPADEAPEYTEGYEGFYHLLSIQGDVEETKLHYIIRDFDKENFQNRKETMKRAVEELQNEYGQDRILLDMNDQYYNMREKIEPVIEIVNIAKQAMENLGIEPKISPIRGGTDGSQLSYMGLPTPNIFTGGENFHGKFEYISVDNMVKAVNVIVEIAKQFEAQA
Method: as §1, §2, §3, §4

[1] = at the highest concentration required to inhibit bacterial growth; cited from earlier work
Text: Microcins are antimicrobial peptides synthesized by ribosomes and are produced by some Enterobacteriaceae species under the condition of nutrient depletion to kill or inhibit neighboring competitors ([1], [2]). Microcins are divided into two categories, namely, class I and class II, according to their molecular masses. Class I microcins have mass less than 5 kDa, while that of class II microcins is between 5 and 10 kDa ([1]). Microcin J25 (MccJ25) is a class I microcin with a unique lasso-like structure ([3][–][5]) that inhibits or kills target bacteria (primarily Gram-negative Enterobacteriac ...

[2] = tested on: proteases (including peptidases); conditions: cited from earlier work
Text: Peptidases are important tools in the growth and metabolism of various organisms, including B. subtilis, and they are classified as exopeptidases and endopeptidases depending on the position of peptide bond cleavage ([22]). Different classes of peptidases are associated with important biological pathways. Based on similarity, PepA (yuiE) is predicted to be an aminopeptidase in B. subtilis, but its exact function has not been studied. In E. coli, PepA is a well-defined leucyl aminopeptidase with cysteinyl–glycinase activity, which involves glutathione turnover ([23]). Since glutathione is absen ...

[3] = spot-on-lawn assay, S. enteritidis CVCC3377

PepA, sequence (O32106 whole entry): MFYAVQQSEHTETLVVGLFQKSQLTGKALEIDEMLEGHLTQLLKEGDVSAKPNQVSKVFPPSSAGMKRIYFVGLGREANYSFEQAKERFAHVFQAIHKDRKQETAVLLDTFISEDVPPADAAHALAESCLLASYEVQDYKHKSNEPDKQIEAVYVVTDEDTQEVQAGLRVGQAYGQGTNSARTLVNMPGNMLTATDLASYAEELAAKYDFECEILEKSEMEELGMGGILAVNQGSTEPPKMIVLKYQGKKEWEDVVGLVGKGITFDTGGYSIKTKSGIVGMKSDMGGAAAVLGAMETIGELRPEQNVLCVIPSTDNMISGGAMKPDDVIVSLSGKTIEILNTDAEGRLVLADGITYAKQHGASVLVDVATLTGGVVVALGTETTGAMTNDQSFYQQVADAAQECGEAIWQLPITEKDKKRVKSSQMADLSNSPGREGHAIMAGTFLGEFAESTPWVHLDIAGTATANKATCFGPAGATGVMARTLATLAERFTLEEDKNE

## microcin J25 (GGAGHVPEYFVGIGTPISFYG; lactam N-8 (inferred); UniProt Q9X2V7 38-58, looked up) [MccJ25, lasso peptide, class I microcin of 21 amino acid residues: eight-residue cycle and thirteen-residue tail threading through the macrolactam ring]
PepA; UPLC-QqQ-MS
  concentration of mature MccJ25 after treatment with PepA: remained unchanged
PepA; [3]
  antibacterial activity of mature MccJ25 after treatment with PepA: remained unchanged
PepF; UPLC-QqQ-MS
  concentration of MccJ25 after treatment with PepF: unchanged
PepF; spot-on-lawn assay, indicator S. enteritidis CVCC3377
  antibacterial activity of MccJ25 after treatment with PepF: unchanged
PepT; UPLC-QqQ-MS
  concentration of mature MccJ25 after treatment with PepT: remained unchanged
PepT; [3]
  antibacterial activity of mature MccJ25 after treatment with PepT: remained unchanged
[1]
  toxicity and hemolysis: neither toxic nor hemolytic
[2]
  resistance to proteases (including peptidases): high resistance
